Results taken from IntAct's records for PubMed 21934712.

Target: scc4_human MAU2 (UniProt Q9Y6X3)
Sequence of UniProt Q9Y6X3 (Q9Y6X3 whole entry): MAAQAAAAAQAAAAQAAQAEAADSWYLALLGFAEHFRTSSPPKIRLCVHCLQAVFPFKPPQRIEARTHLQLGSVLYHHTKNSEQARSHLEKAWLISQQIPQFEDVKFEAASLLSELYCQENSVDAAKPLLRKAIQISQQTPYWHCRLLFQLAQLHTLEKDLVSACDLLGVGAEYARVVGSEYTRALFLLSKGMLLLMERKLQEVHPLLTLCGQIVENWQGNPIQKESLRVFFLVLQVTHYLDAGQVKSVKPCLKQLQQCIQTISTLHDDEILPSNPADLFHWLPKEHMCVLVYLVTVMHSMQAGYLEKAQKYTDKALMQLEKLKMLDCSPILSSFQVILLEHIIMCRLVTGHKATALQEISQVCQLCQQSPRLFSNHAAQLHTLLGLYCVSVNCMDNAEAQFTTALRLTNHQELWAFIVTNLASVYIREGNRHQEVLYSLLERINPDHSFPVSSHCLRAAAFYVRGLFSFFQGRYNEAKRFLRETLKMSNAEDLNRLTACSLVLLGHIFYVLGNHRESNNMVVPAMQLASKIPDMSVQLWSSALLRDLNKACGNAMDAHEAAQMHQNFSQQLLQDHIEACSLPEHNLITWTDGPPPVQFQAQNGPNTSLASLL

| effect of a mutation on the interaction | Substance |
| --- | --- |
| decreasing interaction strength | Nipped-B-like protein (Homo sapiens), Q6KC79 G15R |
| decreasing interaction strength | Nipped-B-like protein (Homo sapiens), Q6KC79 P29Q |
